Assay results published in patent publication US20200317768A1 (published 2020).

T1: human FcγRIIaR extracellular domain with C-terminal His-tag (human, UniProt P12318 34-217)
T1 construct: Expressed in FreeStyle 293 cells and purified; also called human FcγRIIa (type R); FcgRIIaR; not shown: C-terminal His-tag
T1 chain: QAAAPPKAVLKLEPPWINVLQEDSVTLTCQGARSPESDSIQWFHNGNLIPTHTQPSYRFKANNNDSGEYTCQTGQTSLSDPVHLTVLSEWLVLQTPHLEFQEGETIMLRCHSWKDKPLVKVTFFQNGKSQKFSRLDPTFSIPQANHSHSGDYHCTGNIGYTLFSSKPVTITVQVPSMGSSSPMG

T2: cynomolgus monkey FcγRIIIaS extracellular domain with C-terminal His-tag (cynomolgus monkey, UniProt Q8SPW2 21-206 at identity 1.00))
T2 construct: Expressed in FreeStyle 293 cells and purified; also called cyno FcγRIIIaS; cynoFcγRIIIaS; not shown: C-terminal His-tag
T2 chain: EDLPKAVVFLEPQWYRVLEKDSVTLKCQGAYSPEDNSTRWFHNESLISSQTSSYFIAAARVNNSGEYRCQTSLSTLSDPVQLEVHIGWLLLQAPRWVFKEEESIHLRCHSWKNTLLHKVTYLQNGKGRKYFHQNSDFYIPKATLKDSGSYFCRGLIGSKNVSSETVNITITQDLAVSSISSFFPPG

T3: cynomolgus monkey FcγRIIa2 extracellular domain with C-terminal His-tag (cynomolgus monkey)
T3 construct: Expressed in FreeStyle 293 cells and purified; also called cyno FcγRIIa2; cynoFcgRIIa2; not shown: C-terminal His-tag
T3 chain: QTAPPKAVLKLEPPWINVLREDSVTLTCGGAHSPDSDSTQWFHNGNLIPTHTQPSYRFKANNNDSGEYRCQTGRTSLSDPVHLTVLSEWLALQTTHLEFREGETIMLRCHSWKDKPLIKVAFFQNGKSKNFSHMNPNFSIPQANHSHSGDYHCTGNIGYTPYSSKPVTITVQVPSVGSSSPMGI

T4: cynomolgus monkey FcγRIIa1 extracellular domain with C-terminal His-tag (cynomolgus monkey)
T4 construct: Expressed in FreeStyle 293 cells and purified; also called cyno FcγRIIa1; cynoFcgRIIa1; not shown: C-terminal His-tag
T4 chain: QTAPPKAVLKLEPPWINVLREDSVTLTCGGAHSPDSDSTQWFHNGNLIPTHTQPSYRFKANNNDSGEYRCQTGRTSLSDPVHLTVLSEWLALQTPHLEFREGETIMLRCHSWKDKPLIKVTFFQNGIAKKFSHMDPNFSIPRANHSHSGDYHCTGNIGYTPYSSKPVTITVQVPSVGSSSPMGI

T5: human FcγRIIaH extracellular domain with C-terminal His-tag (human, UniProt P12318 34-217)
T5 construct: Expressed in FreeStyle 293 cells and purified; also called human FcγRIIa (type H); FcgRIIaH; not shown: C-terminal His-tag
T5 sequence: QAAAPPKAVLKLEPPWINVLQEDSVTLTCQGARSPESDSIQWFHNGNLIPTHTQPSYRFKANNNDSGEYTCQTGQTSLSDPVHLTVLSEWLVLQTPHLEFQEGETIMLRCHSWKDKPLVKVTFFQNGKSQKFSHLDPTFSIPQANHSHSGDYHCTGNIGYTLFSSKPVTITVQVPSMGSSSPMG

T6: human FcγRIIb extracellular domain with C-terminal His-tag (human, UniProt P31994 43-217)
T6 construct: Expressed in FreeStyle 293 cells and purified; also called humanFcgRIIb; not shown: C-terminal His-tag
T6 sequence: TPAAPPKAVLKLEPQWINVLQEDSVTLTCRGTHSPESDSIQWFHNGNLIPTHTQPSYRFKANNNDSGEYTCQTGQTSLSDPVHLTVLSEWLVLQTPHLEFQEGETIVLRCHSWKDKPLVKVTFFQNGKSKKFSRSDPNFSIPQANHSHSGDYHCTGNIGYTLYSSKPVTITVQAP

T7: cynomolgus monkey FcγRIIb extracellular domain with C-terminal His-tag (cynomolgus monkey)
T7 construct: Expressed in FreeStyle 293 cells and purified; also called cyno FcγRIIb; cynoFcγRIIb; not shown: C-terminal His-tag
T7 chain: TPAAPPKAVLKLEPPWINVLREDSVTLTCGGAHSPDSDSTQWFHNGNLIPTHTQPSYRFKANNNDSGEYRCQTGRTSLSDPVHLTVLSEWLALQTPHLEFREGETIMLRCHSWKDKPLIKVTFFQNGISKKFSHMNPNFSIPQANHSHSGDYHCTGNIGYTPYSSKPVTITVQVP


Key:
Assay in all cases: SPR (Biacore); KD of SG1 divided by KD of the variant for this FcgR;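 also: relative to parent M103205H795-SG1 carrying the SG1 human heavy chain constant region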
[1] = target: T8, human FcγRIIIaV extracellular domain with C-terminal His-tag (human, UniProt P08637 17-208)
T8 construct: Expressed in FreeStyle 293 cells and purified; also called FcgRIIIaV; not shown: C-terminal His-tag
T8 sequence (P08637 17-208 F176V): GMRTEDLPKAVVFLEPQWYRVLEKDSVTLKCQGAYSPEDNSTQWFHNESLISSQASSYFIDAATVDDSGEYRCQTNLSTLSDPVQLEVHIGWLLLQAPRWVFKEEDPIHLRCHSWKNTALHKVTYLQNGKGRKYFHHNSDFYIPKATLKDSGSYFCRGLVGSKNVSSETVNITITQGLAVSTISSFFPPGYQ

[2] = target: T1, human FcγRIIaR extracellular domain …
[3] = target: T2, cynomolgus monkey FcγRIIIaS …
[4] = target: T3, cynomolgus monkey FcγRIIa2 …
[5] = target: T4, cynomolgus monkey FcγRIIa1 …
[6] = target: T5, human FcγRIIaH extracellular domain …
[7] = target: T6, human FcγRIIb extracellular domain with …
[8] = target: T7, cynomolgus monkey FcγRIIb extracellular …

Binder | KD fold (SG1 = 1) [1] [fold] | KD fold (SG1 = 1) [2] [fold] | KD fold (SG1 = 1) [3] [fold] | KD fold (SG1 = 1) [4] [fold] | KD fold (SG1 = 1) [5] [fold] | KD fold (SG1 = 1) [6] [fold] | KD fold (SG1 = 1) [7] [fold] | KD fold (SG1 = 1) [8] [fold]
M103205H795-MY179 / M103202L889-SK1 (antibody, human IgG1, kappa, Position 396 variant derived from MY052, expressed with M103202L889-SK1 as light chain) heavy: QVTLKESGPVLVKPTETLTLTCTVSGIDLSHDDISWVRQAPGKGLEWVGIISYAGSTYYASWAKGRLTISKDTSKNQVVLTMTNMDPVDTATYYCARGVPAYSHGGDLWGQGTLVTVSSASTKGPSVFPLAPSSKSTSGGTAALGCLVKDYFPEPVTVSWNSGALTSGVHTFPAVLQSSGLYSLSSVVTVPSSSLGTQTYICNVNHKPSNTKVDKKVEPKSCDKTHTCPPCPAPELLNGPSVFLFPPKPKDTLMISRTPEVTCVVVDVSEEDPEVKFNWYVDGVEVHNAKTKPREEQYNSTYRVVSVLTVLHQDWLNGKEYKCKVSNKALPAPIEKTISKAKGQPREPQVYTLPPSREEMTKNQVSLTCLVKGFYPSDIAVEWESNGQPENNYKTTPRVLDSDGSFFLYSKLTVDKSRWQQGNVFSCSVMHEALHNHYTQKSLSLSP light: DIVMTQSPATLSLSPGERATLSCTSSQSVYHANWLSWFQQKPGQPPKLLIYWASTLAYGVPSRFSGSGSGTDFTLTISSLQPEDAATYYCAGGYGGGRYAFGQGTKVEIKRTVAAPSVFIFPPSDEQLKSGTASVVCLLNNFYPREAKVQWKVDNALQSGNSQESVTEQDSKDSTYSLSSTLTLSKADYEKHKVYACEVTHQGLSSPVTKSFNRGEC | 0.14 | 0.5 | 0.13 | 2.5 | 1.7 | 0.6 | 3.8 | 1.8
M103205H795-MY180 / M103202L889-SK1 (antibody, human IgG1, kappa, Position 396 variant derived from MY052, expressed with M103202L889-SK1 as light chain) heavy: QVTLKESGPVLVKPTETLTLTCTVSGIDLSHDDISWVRQAPGKGLEWVGIISYAGSTYYASWAKGRLTISKDTSKNQVVLTMTNMDPVDTATYYCARGVPAYSHGGDLWGQGTLVTVSSASTKGPSVFPLAPSSKSTSGGTAALGCLVKDYFPEPVTVSWNSGALTSGVHTFPAVLQSSGLYSLSSVVTVPSSSLGTQTYICNVNHKPSNTKVDKKVEPKSCDKTHTCPPCPAPELLNGPSVFLFPPKPKDTLMISRTPEVTCVVVDVSEEDPEVKFNWYVDGVEVHNAKTKPREEQYNSTYRVVSVLTVLHQDWLNGKEYKCKVSNKALPAPIEKTISKAKGQPREPQVYTLPPSREEMTKNQVSLTCLVKGFYPSDIAVEWESNGQPENNYKTTPSVLDSDGSFFLYSKLTVDKSRWQQGNVFSCSVMHEALHNHYTQKSLSLSP light: DIVMTQSPATLSLSPGERATLSCTSSQSVYHANWLSWFQQKPGQPPKLLIYWASTLAYGVPSRFSGSGSGTDFTLTISSLQPEDAATYYCAGGYGGGRYAFGQGTKVEIKRTVAAPSVFIFPPSDEQLKSGTASVVCLLNNFYPREAKVQWKVDNALQSGNSQESVTEQDSKDSTYSLSSTLTLSKADYEKHKVYACEVTHQGLSSPVTKSFNRGEC | 0.14 | 0.4 | 0.12 | 1.9 | 1.2 | 0.4 | 2.4 | 1.4
M103205H795-MY181 / M103202L889-SK1 (antibody, human IgG1, kappa, Position 396 variant derived from MY052, expressed with M103202L889-SK1 as light chain) heavy: QVTLKESGPVLVKPTETLTLTCTVSGIDLSHDDISWVRQAPGKGLEWVGIISYAGSTYYASWAKGRLTISKDTSKNQVVLTMTNMDPVDTATYYCARGVPAYSHGGDLWGQGTLVTVSSASTKGPSVFPLAPSSKSTSGGTAALGCLVKDYFPEPVTVSWNSGALTSGVHTFPAVLQSSGLYSLSSVVTVPSSSLGTQTYICNVNHKPSNTKVDKKVEPKSCDKTHTCPPCPAPELLNGPSVFLFPPKPKDTLMISRTPEVTCVVVDVSEEDPEVKFNWYVDGVEVHNAKTKPREEQYNSTYRVVSVLTVLHQDWLNGKEYKCKVSNKALPAPIEKTISKAKGQPREPQVYTLPPSREEMTKNQVSLTCLVKGFYPSDIAVEWESNGQPENNYKTTPTVLDSDGSFFLYSKLTVDKSRWQQGNVFSCSVMHEALHNHYTQKSLSLSP light: DIVMTQSPATLSLSPGERATLSCTSSQSVYHANWLSWFQQKPGQPPKLLIYWASTLAYGVPSRFSGSGSGTDFTLTISSLQPEDAATYYCAGGYGGGRYAFGQGTKVEIKRTVAAPSVFIFPPSDEQLKSGTASVVCLLNNFYPREAKVQWKVDNALQSGNSQESVTEQDSKDSTYSLSSTLTLSKADYEKHKVYACEVTHQGLSSPVTKSFNRGEC | 0.11 | 0.4 | 0.09 | 2.2 | 1.4 | 0.5 | 3.3 | 1.8
M103205H795-MY182 / M103202L889-SK1 (antibody, human IgG1, kappa, Position 396 variant derived from MY052, expressed with M103202L889-SK1 as light chain) heavy: QVTLKESGPVLVKPTETLTLTCTVSGIDLSHDDISWVRQAPGKGLEWVGIISYAGSTYYASWAKGRLTISKDTSKNQVVLTMTNMDPVDTATYYCARGVPAYSHGGDLWGQGTLVTVSSASTKGPSVFPLAPSSKSTSGGTAALGCLVKDYFPEPVTVSWNSGALTSGVHTFPAVLQSSGLYSLSSVVTVPSSSLGTQTYICNVNHKPSNTKVDKKVEPKSCDKTHTCPPCPAPELLNGPSVFLFPPKPKDTLMISRTPEVTCVVVDVSEEDPEVKFNWYVDGVEVHNAKTKPREEQYNSTYRVVSVLTVLHQDWLNGKEYKCKVSNKALPAPIEKTISKAKGQPREPQVYTLPPSREEMTKNQVSLTCLVKGFYPSDIAVEWESNGQPENNYKTTPVVLDSDGSFFLYSKLTVDKSRWQQGNVFSCSVMHEALHNHYTQKSLSLSP light: DIVMTQSPATLSLSPGERATLSCTSSQSVYHANWLSWFQQKPGQPPKLLIYWASTLAYGVPSRFSGSGSGTDFTLTISSLQPEDAATYYCAGGYGGGRYAFGQGTKVEIKRTVAAPSVFIFPPSDEQLKSGTASVVCLLNNFYPREAKVQWKVDNALQSGNSQESVTEQDSKDSTYSLSSTLTLSKADYEKHKVYACEVTHQGLSSPVTKSFNRGEC | 0.12 | 0.5 | 0.1 | 2.3 | 1.5 | 0.5 | 3.8 | 1.9
